This test deals with LexA-tpr-met-Gab1Cter Y473F Y590F (two-hybrid bait) (UniProt Q9QYY0). Kind of test: two-hybrid.

Data on one substance can be found in paper PMC2175135.

Turning to “COOH-terminal SH2 domain of p85α PI(3)K (two-hybrid prey) (from UniProt P26450 624-718) (domain or fragment)”, the percent of the interaction with Gab1Cter was 25%.
